In patent US20230381229A1:
Numbering of substitutions follows the chain as printed. Names may count otherwise.

B1: variant PD-L2 IgV-Fc H15Q (Fc fusion)
chain: LFTVTVPKELYIIEQGSNVTLECNFDTGSHVNLGAITASLQKVENDTSPHRERATLLEEQLPLGKASFHIPQVQVRDEGQYQCIIIYGVAWDYKYLTLKVKA
B2: variant PD-L2 IgV-Fc S67L, I85F (Fc fusion)
chain: B1 chain with Q15H, S67L, I85F
B3: variant PD-L2 IgV-Fc H15Q, S67L, R76G, I85F (Fc fusion)
chain: B1 chain with S67L, R76G, I85F
B4: variant PD-L2 IgV-Fc Q82R, V89D (Fc fusion)
chain: B1 chain with Q15H, Q82R, V89D
B5: variant PD-L2 IgV-Fc N24D (Fc fusion)
chain: B1 chain with Q15H, N24D
B6: variant PD-L2 IgV-Fc I13V, H15Q, R76G, I85F (Fc fusion)
chain: B1 chain with I13V, R76G, I85F
B7: variant PD-L2 IgV-Fc H15Q, E44D, R76G, I85F (Fc fusion)
chain: B1 chain with E44D, R76G, I85F
B8: variant PD-L2 IgV-Fc G28V, Q72H, R76G, I86T (Fc fusion)
chain: B1 chain with Q15H, G28V, Q72H, R76G, I86T
B9: variant PD-L2 IgV-Fc H15Q, T47A, Q72H, R76G, I86T (Fc fusion)
chain: B1 chain with T47A, Q72H, R76G, I86T
B10: variant PD-L2 IgV-Fc E44D, V89D, W91R (Fc fusion)
chain: B1 chain with Q15H, E44D, V89D, W91R
B11: variant PD-L2 IgV-Fc S67L, V89D (Fc fusion)
chain: B1 chain with Q15H, S67L, V89D
B12: Wild Type PD-L2 IgV (Fc fusion)
chain: B1 chain with Q15H
B13: variant PD-L2 IgV-Fc I13V, H15Q, T47A, Q82R, V89D (SEQ ID NO 725) (Fc fusion)
chain: B1 chain with I13V, N24D, Q82R, V89D
B14: variant PD-L2 IgV-Fc E44D (Fc fusion)
chain: B1 chain with Q15H, E44D
B15: variant PD-L2 IgV-Fc I13V, E44D, Q82R, V89D (Fc fusion)
chain: B1 chain with I13V, Q15H, E44D, Q82R, V89D
B16: variant PD-L2 IgV-Fc V89D (Fc fusion)
chain: B1 chain with Q15H, V89D
B17: variant PD-L2 IgV-Fc I13V, H15Q, E44V, T47A, Q82R, V89D (Fc fusion)
chain: B1 chain with I13V, E44V, T47A, Q82R, V89D
B18: variant PD-L2 IgV-Fc H15Q, C23S, I86T (Fc fusion)
chain: B1 chain with C23S, I86T
B19: variant PD-L2 IgV-Fc H15Q, Q72H, Q74R, R76G, I86T (Fc fusion)
chain: B1 chain with Q72H, Q74R, R76G, I86T
B20: variant PD-L2 IgV-Fc H15Q, Q72H, V89D (Fc fusion)
chain: B1 chain with Q72H, V89D
B21: variant PD-L2 IgV-Fc H15Q, K65R (Fc fusion)
chain: B1 chain with K65R
B22: variant PD-L2 IgV-Fc H15Q, T47A (Fc fusion)
chain: B1 chain with T47A
B23: variant PD-L2 IgV-Fc H15Q, V89D (Fc fusion)
chain: B1 chain with V89D
B24: WT CD80 IgV/IgC-Fc (Fc fusion)
chain: VIHVTKEVKEVATLSCGHNVSVEELAQTRIYWQKEKKMVLTMMSGDMNIWPEYKNRTIFDITNNLSIVILALRPSDEGTYECVVLKYEKDAFKREHLAEVTLSVKADFPTPSISDFEIPTSNIRRIICSTSGGFPEPHLSWLENGEELNAINTTVSQDPETELYAVSSKLDFNMTTNHSFMCLIKYGHLRVNQTFNWNTTKQEHFPDN
B25: variant PD-L1 ECD-Fc I36T, M97L, Q155H, F193S, N201Y (Fc fusion)
chain: FTVTVPKDLYVVEYGSNMTIECKFPVEKQLDLAALTVYWEMEDKNIIQFVHGEEDLKVQHSSYRQRARLLKDQLSLGNAALQITDVKLQDAGVYRCLISYGGADYKRITVKVNAPYNKINQRILVVDPVTSEHELTCQAEGYPKAEVIWTSSDHHVLSGKTTTTNSKREEKLFNVTSTLRINTTTNEIFYCTSRRLDPEEYHTAELVIPELPLAHPPNER
B26: variant PD-L1 ECD-Fc K57R, S99G, R195G (Fc fusion)
chain: B25 chain with T36I, K57R, L97M, S99G, H155Q, S193F, R195G, Y201N
B27: variant PD-L1 ECD-Fc K57R, S99G, L124S, K144Q (Fc fusion)
chain: B25 chain with T36I, K57R, L97M, S99G, L124S, K144Q, H155Q, S193F, Y201N
B28: variant PD-L1 ECD-Fc N17D, M97L, S99G (Fc fusion)
chain: B25 chain with N17D, T36I, S99G, H155Q, S193F, Y201N
B29: variant PD-L1 ECD-Fc Y10F, M18V, S99G, Q138R, T203A (Fc fusion)
chain: B25 chain with Y10F, M18V, T36I, L97M, S99G, Q138R, H155Q, S193F, Y201N, T203A
B30: variant PD-L1 ECD-Fc I36S, M41K, M97L, K144Q, R195G, E200K, H202Q, L206F (Fc fusion)
chain: B25 chain with T36S, M41K, K144Q, H155Q, S193F, R195G, E200K, Y201N, H202Q, L206F
B31: variant PD-L1 ECD-Fc I36T, I83T, M97L, K144E, P198T (Fc fusion)
chain: B25 chain with I83T, K144E, H155Q, S193F, P198T, Y201N
B32: variant PD-L2 IgV-Fc I13V, H15Q, T37A, E44D, S48C, S67L, Q82R, V89D (Fc fusion)
chain: B1 chain with I13V, T37A, E44D, S48C, S67L, Q82R, V89D
B33: variant PD-L2 IgV-Fc H15Q, Q82R, V89D (Fc fusion)
chain: B1 chain with Q82R, V89D
B34: variant PD-L2 IgV-Fc H15Q, N24S, T47A, Q72H, R76G, V89D (Fc fusion)
chain: B1 chain with N24S, T47A, Q72H, R76G, V89D
B35: variant PD-L2 IgV-Fc I13V, H15Q, T47A, R76G, V89D (Fc fusion)
chain: B1 chain with I13V, T47A, R76G, V89D

Biological target: PD-1 expressed on cells (human)
Assay: flow cytometry, Jurkat/PD-1 cells

Sequence of PD-1 expressed on cells (human) (chain, as listed by the source): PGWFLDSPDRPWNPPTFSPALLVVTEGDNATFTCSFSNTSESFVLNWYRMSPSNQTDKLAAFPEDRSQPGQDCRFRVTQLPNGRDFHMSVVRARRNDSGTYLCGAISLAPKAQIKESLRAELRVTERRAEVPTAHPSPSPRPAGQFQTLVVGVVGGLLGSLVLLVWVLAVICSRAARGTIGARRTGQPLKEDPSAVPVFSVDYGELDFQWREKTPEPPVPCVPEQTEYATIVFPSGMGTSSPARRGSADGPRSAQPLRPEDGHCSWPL

Row | Fold increase over wildtype PD-L2 IgV-Fc | MFI at 50 nM | Binder
1 | 1.63 | 16000 | B1
2 | 0.05 | 529 | B2
3 | 0.29 | 2870 | B3
4 | – | 45000 | B4
5 | 0.14 | 1410 | B5
6 | 0.48 | 4740 | B6
7 | – | 2880 | B7
8 | 0.57 | 5560 | B8
9 | 3.26 | 32100 | B9
10 | – | 614 | B10
11 | – | 16000 | B11
12 | – | 9840 | B12
13 | 6.2 | 61000 | B13
14 | 0.3 | 2930 | B14
15 | 4.59 | 45200 | B15
16 | 0.34 | 3360 | B16
17 | – | 61000 | B17
18 | – | 830 | B18
19 | – | 4050 | B19
20 | – | 12600 | B20
21 | 1.37 | 13500 | B21
22 | 2.7 | 26600 | B22
23 | 1.8 | 17700 | B23

Biological target: CD28 (human)
Assay: flow cytometry on HEK293 cells transfected with CD28

Row | MFI at 66.6 nM | Binder
24 | 3070 | B24

Biological target: CD80 expressed on cells (Homo sapiens)
Assay: flow cytometry, cells expressing CD80

Row | Fold Change Compared to WT PD-L1 | MFI at 20 nM | Binder
25 | 9.3 | 1250 | B25
26 | 81.8 | 11000 | B26
27 | 105 | – | B27
28 | 547 | – | B28
29 | 3.1 | 412 | B29

Biological target: PD-1 expressed on cells (human)
Assay: flow cytometry, cells expressing PD-1

Row | MFI at 20 nM | Fold Change Compared to WT PD-L1 | Binder
30 | 3500 | – | B30
31 | 69 | 0 | B25
32 | – | 0.8 | B26
33 | – | 0.7 | B27
34 | 62 | – | B31
35 | – | 3.2 | B28
36 | 70 | 0 | B29

Biological target: PD-1-Fc (Homo sapiens)
Assay: ForteBio, PD-1-Fc

Sequence of PD-1-Fc (Homo sapiens) (chain, as listed by the source limits assumed): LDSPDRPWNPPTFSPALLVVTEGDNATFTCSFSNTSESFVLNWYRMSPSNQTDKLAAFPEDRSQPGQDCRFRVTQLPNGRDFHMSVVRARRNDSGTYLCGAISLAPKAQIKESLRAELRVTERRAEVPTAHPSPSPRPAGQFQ

Row | Fortebio binding to PD-1-Fc Response Units (Response Units) | Binder
37 | 0.007 | B1
38 | -0.005 | B2
39 | 0.025 | B3
40 | -0.039 | B5
41 | -0.04 | B6
42 | 0.003 | B8
43 | 0.512 | B9
44 | 1.25 | B32
45 | 1.2 | B33
46 | 1.45 | B13
47 | 0.4 | B34
48 | -0.006 | B14
49 | 1.28 | B15
50 | 0.005 | B16
51 | -0.001 | B21
52 | 0.016 | B22
53 | 1.6 | B35
54 | 0.31 | B23
